According to patent US20250215104A1 (WALDEN BIOSCIENCES, published 2025):

Legend:
[1] = target: T1, human soluble urokinase plasminogen activator receptor (suPAR) (human, UniProt Q03405 23-303, limits assumed); test: BLI (Octet) off-rate screen of scFv clones
T1 construct: Target antigen of the scFv off-rate screen; also called hsuPAR; human suPAR

[2] = target: T2, cynomolgus soluble urokinase plasminogen activator receptor (suPAR) (cynomolgus, UniProt Q9GK78 23-303, limits assumed); test: BLI (Octet) off-rate screen of scFv clones
T2 construct: Target antigen of the scFv off-rate screen; also called cynomolgus suPAR; cynomolgus uPAR
T2 sequence (Q9GK78 23-303 limits assumed): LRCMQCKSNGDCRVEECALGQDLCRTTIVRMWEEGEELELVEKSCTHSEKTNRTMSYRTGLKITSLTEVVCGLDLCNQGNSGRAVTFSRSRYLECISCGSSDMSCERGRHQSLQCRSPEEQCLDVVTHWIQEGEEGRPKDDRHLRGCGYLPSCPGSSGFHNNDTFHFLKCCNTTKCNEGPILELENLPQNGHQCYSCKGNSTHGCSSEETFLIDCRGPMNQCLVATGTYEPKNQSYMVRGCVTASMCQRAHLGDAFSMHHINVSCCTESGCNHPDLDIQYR

T1 sequence (Q03405 23-303 limits assumed): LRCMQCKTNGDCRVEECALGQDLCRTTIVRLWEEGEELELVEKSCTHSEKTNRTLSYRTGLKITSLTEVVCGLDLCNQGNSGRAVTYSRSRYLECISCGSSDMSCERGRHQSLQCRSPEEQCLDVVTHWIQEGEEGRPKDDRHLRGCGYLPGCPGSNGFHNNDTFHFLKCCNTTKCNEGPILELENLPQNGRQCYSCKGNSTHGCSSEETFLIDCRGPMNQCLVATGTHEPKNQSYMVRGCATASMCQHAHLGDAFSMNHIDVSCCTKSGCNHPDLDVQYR

Binder | koff [1] [s⁻¹] | koff [2] [s⁻¹]
suPAR_DB06_E05 (scFv, V domains shown) VH: QVQLVQSGAEVKKPGASVKVSCKASGYTFTSHYIQWVRQAPGQGLEWMGWIDHENGNTIYDQKFQGRVTMTRDTSTSTVYMELSSLRSEDTAVYYCARGTDVDWFVYWGQGTLVTVSS VL: DIQMTQSPSSLSASVGDRVTITCSARSSVSYMYWYQQKPGKAPKLLIYRTSNLASGVPSRFSGSGSGTDFTLTISSLQPEDFATYYCQQYHSYPPTFGGGTKVEIK | 0.00315 | 0.000905
suPAR_DB06_E08 (scFv, V domains shown) VH: QVQLVQSGAEVKKPGASVKVSCKASGYGFTDYYMHWVRQAPGQGLEWMGWIDHSGGNTIYAQKFQGRVTMTRDTSTSTVYMELSSLRSEDTAVYYCARGYDVDWFVYWGQGTLVTVSS VL: DIQMTQSPSSLSASVGDRVTITCSARQSVSYMYWYQQKPGKAPKLLIYRTSNLASGVPSRFSGSGSGTDFTLTISSLQPEDFATYYCQQYHSYPPTFGGGTKVEIK | 0.00335 | 2.02e-05
suPAR_DB06_E07 (scFv, V domains shown) VH: QVQLVQSGAEVKKPGASVKVSCKASGYTFTNYYLHWVRQAPGQGLEWMGWIDPHSGGTNYAQKFQGRVTMTRDTSTSTVYMELSSLRSEDTAVYYCASGYDVDWFVYWGQGTLVTVSS VL: DIQMTQSPSSLSASVGDRVTITCSARSSVSYMYWYQQKPGKAPKLLIYRTSNLASGVPSRFSGSGSGTDFTLTISSLQPEDFATYYCQQYHSYPPTFGGGTKVEIK | 0.00497 | 0.000388
suPAR_DB06_E09 (scFv, V domains shown) VH: QVQLVQSGAEVKKPGASVKVSCKASGHTFTNYYVHWVRQAPGQGLEWMGWIDHENGSTSYDQKFQGRVTMTRDTSTSTVYMELSSLRSEDTAVYYCARGYDVDWFVYWGQGTLVTVSS VL: DIQMTQSPSSLSASVGDRVTITCSARSSVSYMYWYQQKPGKAPKLLIYRTSNLASGVPSRFSGSGSGTDFTLTISSLQPEDFATYYCQQYHSYPPTFGGGTKVEIK | 0.00316 | 0.000301
suPAR_DB06_E06 (scFv, V domains shown) VH: QVQLVQSGAEVKKPGASVKVSCKASGDTSTSYYMHWVRQAPGQGLEWMGWIDHENGSTIYDQKFQGRVTMTRDTSTSTVYMELSSLRSEDTAVYYCARGYDVDWFVYWGQGTLVTVSS VL: DIQMTQSPSSLSASVGDRVTITCSARSSVSYMYWYQQKPGKAPKLLIYRTSNLASGVPSRFSGSGSGTDFTLTISSLQPEDFATYYCQQYHSYPPTFGGGTKVEIK | 0.00135 | 0.000319

Second part, the binder after the results:

koff [1] [s⁻¹] | koff [2] [s⁻¹] | Binder
0.00118 | 0.000723 | suPAR_DB06_E11 (scFv, V domains shown) VH: QVQLVQSGAEVKKPGASVKVSCKASGYTFTGYYMHWVRQAPGQGLEWMGWIDHENGNTIYAQKFQGRVTMTRDTSTSTVYMELSSLRSEDTAVYYCARGYDVDWFVYWGQGTLVTVSS VL: DIQMTQSPSSLSASVGDRVTITCSASSSVSYMYWYQQKPGKAPKLLIYRTSNLASGVPSRFSGSGSGTDFTLTISSLQPEDFATYYCQQYHSYPPTFGGGTKVEIK
0.00373 | 0.000164 | suPAR_DB06_E12 (scFv, V domains shown) VH: QVQLVQSGAEVKKPGASVKVSCKASGYTFTSYYMHWVRQAPGQGLEWMGWIDHENGNTSYAQKFQGRVTMTRDTSTSTVYMELSSLRSEDTAVYYCARGYDVDWFVYWGQGTLVTVSS VL: DIQMTQSPSSLSASVGDRVTITCRARSSVSYMYWYQQKPGKAPKLLIYRTSNLASGVPSRFSGSGSGTDFTLTISSLQPEDFATYYCQQYHSYPPTFGGGTKVEIK
0.00526 | 0.000271 | suPAR_DB06_E10 (scFv, V domains shown) VH: QVQLVQSGAEVKKPGASVKVSCKASGDTFISYYMHWVRQAPGQGLEWMGWIDPENGNTIYDQKFQGRVTMTRDTSTSTVYMELSSLRSEDTAVYYCARGYDVDWFVYWGQGTLVTVSS VL: DIQMTQSPSSLSASVGDRVTITCSARSSVSYMYWYQQKPGKAPKLLIYRTSNLASGVPSRFSGSGSGTDFTLTISSLQPEDFATYYCQQYHSYPPTFGGGTKVEIK
